{
  "source": "patent US20210301277",
  "target": "T1, human TF (Innovin, DADE/Behring), P13726",
  "T1 chain": "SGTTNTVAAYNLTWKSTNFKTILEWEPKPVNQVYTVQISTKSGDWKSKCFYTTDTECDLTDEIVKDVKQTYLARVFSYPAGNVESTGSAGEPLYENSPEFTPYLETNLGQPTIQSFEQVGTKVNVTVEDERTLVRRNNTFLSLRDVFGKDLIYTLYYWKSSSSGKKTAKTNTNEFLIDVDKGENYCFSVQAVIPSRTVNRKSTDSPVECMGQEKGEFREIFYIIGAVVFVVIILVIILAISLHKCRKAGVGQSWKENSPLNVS",
  "data": [
    {"protein": "PCgla-egf1FVIIa (protein) chain 1: ANSFLEELRHSSLERECIEEICDFEEAKEIFQNVDDTLAFWSKHVDGDQCLVLPLEHPCASLCCGHGTCIDGIGSFSCDCRSGWEGRFCQRKDDQLICVNENGGCEQYCSDHTGTKRSCRCHEGYSLLADGVSCTPTVEYPCGKIPILEKRNASKPQGR chain 2: IVGGKVCPKGECPWQVLLLVNGAQLCGGTLINTIWVVSAAHCFDKIKNWRNLIAVLGEHDLSEHDGDEQSRRVAQVIIPSTYVPGTTNHDIALLRLHQPVVLTDHVVPLCLPERTFSERTLAFVRFSLVSGWGQLLDRGATALELMVLNVPRLMTQDCLQQSRKVGDSPNITEYMFCAGYSDGSKDSCKGDSGGPHATHYRGTWYLTGIVSWGQGCATVGHFGVYTRVSQYIEWLQKLMRSEPRPGVLLRAPFP", "values": [
      {"measurement": "FX activation in the presence of 1 nM TF (FXa generation rates, mOD/min)", "value": "The lack of FX activation, even at 100-fold higher concentration than that of rFVIIa"},
      {"measurement": "TF-dependent activity (FX activation, cleavage of chromogenic FXa substrate at 405 nm)", "value": "the activity of PCgla-egf1FVIIa was identical to the vehicle control"}
    ]},
    {"protein": "FIXgla-egf1FVIIa (protein) YNSGKLEEFVQGNLERECMEEKCSFEEAREVFENTERTTEFWKQYVDGDQCESNPCLNGGSCKDDINSYECWCPFGFEGKNCETHKDDQLICVNENGGCEQYCSDHTGTKRSCRCHEGYSLLADGVSCTPTVEYPCGKIPILEKRNASKPQGRIVGGKVCPKGECPWQVLLLVNGAQLCGGTLINTIWVVSAAHCFDKIKNWRNLIAVLGEHDLSEHDGDEQSRRVAQVIIPSTYVPGTTNHDIALLRLHQPVVLTDHVVPLCLPERTFSERTLAFVRFSLVSGWGQLLDRGATALELMVLNVPRLMTQDCLQQSRKVGDSPNITEYMFCAGYSDGSKDSCKGDSGGPHATHYRGTWYLTGIVSWGQGCATVGHFGVYTRVSQYIEWLQKLMRSEPRPGVLLRAPFP", "values": [
      {"measurement": "FX activation in the presence of 1 nM TF (FXa generation rates, mOD/min)", "value": "The lack of FX activation, even at 100-fold higher concentration than that of rFVIIa"}
    ]}
  ]
}
